Values quoted from earlier work, collected in article PMC10817355.

Target: BTLA (Homo sapiens) (UniProt Q7Z6A9)
UniProt Q7Z6A9, sequence (Q7Z6A9 31-157): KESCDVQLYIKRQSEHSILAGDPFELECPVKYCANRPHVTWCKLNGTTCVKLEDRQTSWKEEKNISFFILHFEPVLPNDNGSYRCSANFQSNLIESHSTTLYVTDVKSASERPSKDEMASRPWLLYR

Kd: 0.102 µM
Substance: HVEM(14-39) 14-39 (from UniProt Q92956)
